Data taken from patent US20120244563A1.

What was measured:
Assay in all cases: ELISA; coated glycoprotein, biotin-labeled lectin 1 µg/mL; grade of A450 reaction value (Low 0.1 to 0.2, Moderate 0.2 to 0.5, High 0.5 or more)
[1] = target: Prostate-specific antigen (Homo sapiens (Human)) (UniProt P07288)
[2] = target: α-Fetoprotein (Homo sapiens (Human)) (UniProt P02771)
[3] = target: α-Fetoprotein L3 (Homo sapiens (Human)) (UniProt P02771)
Immunoglobulin A = target: Immunoglobulin A
Immunoglobulin G = target: Immunoglobulin G
Immunoglobulin M = target: Immunoglobulin M
α2-Macroglobulin = target: α2-Macroglobulin
Chain of α2-Macroglobulin (P01023 24-1474): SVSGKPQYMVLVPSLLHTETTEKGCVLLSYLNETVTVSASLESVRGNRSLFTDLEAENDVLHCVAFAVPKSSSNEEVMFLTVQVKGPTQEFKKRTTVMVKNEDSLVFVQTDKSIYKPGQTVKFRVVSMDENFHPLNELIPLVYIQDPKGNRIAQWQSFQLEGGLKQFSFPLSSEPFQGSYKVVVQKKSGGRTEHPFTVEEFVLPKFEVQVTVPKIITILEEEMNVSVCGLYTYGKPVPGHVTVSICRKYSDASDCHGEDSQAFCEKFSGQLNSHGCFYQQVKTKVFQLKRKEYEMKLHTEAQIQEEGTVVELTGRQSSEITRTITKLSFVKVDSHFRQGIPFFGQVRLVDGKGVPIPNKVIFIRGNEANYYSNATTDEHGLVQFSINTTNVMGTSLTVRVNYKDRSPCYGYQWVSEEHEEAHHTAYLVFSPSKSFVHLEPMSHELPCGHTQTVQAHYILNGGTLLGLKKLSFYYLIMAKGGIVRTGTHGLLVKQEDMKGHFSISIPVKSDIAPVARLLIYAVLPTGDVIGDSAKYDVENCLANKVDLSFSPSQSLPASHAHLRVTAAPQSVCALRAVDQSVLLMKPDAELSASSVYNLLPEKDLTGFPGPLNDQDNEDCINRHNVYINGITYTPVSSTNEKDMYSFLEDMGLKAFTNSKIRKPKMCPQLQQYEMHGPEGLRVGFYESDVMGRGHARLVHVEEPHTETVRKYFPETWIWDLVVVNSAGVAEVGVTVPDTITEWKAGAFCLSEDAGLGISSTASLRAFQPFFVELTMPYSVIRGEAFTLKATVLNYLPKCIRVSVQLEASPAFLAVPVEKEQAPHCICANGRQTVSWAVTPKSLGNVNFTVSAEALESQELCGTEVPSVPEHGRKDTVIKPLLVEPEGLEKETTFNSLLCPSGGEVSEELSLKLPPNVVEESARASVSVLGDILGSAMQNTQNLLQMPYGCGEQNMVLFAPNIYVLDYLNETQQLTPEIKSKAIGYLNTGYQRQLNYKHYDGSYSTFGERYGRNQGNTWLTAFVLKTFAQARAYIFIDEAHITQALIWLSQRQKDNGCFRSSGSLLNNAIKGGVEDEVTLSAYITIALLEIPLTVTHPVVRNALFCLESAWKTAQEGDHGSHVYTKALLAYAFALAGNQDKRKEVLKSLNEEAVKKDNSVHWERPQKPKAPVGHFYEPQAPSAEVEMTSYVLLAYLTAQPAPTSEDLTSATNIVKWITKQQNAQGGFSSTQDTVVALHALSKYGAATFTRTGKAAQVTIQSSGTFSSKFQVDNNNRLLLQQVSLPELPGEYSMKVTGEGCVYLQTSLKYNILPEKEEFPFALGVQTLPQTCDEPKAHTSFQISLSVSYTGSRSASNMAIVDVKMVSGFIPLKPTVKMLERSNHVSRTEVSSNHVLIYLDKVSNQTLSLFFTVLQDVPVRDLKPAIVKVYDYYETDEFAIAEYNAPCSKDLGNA

Chain of α-Fetoprotein L3 (Homo sapiens (Human)) (P02771 19-609 limits assumed, form in doubt): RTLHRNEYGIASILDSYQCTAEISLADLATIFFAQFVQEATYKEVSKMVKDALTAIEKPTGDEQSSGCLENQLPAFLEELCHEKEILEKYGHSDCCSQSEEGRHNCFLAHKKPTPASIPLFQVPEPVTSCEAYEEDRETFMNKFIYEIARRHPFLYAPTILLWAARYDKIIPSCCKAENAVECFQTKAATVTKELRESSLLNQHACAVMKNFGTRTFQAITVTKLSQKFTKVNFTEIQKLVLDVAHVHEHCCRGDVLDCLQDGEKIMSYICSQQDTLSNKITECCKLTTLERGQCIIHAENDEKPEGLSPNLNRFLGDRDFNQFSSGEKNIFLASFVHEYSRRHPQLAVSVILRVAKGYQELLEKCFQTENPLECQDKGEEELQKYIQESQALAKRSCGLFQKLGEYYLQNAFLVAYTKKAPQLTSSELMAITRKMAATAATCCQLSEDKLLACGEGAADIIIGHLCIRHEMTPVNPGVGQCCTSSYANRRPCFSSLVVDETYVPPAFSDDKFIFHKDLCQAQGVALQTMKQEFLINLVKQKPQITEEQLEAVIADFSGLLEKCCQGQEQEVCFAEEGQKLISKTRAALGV
Chain of Prostate-specific antigen (Homo sapiens (Human)) (P07288 25-261 limits assumed, form in doubt): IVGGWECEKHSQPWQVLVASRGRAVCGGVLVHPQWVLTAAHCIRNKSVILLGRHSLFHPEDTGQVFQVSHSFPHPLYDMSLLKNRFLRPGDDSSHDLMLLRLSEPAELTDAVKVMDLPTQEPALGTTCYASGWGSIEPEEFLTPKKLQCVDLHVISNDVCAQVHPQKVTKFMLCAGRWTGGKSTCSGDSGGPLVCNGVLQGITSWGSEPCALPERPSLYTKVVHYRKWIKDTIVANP
Chain of α-Fetoprotein (Homo sapiens (Human)) (P02771 19-609 limits assumed, form in doubt): as the sequence (P02771 19-609 limits assumed, form in doubt) above

In the case of “Aleuria aurantia lectin (from UniProt P18891 2-313)”, the reaction value (absorbance at 450 nm minus blank) [1] is reported as 0.2 to 0.5 od, the reaction value (absorbance at 450 nm minus blank) [2] is reported as 0.2 to 0.5 od and the reaction value (absorbance at 450 nm minus blank) [3] is reported as over 0.5 od.
For “Lens culinaris lectin (from UniProt P02870 31-210; P02870 218-269)”, the reaction value (absorbance at 450 nm minus blank) [3] was over 0.5 od.
In the case of Pholiota terrestris Overholts lectin, the reaction value (absorbance at 450 nm minus blank) (Immunoglobulin A) is reported as 0.2 to 0.5 od, the reaction value (absorbance at 450 nm minus blank) (Immunoglobulin G) is reported as 0.1 to 0.2 od and the reaction value (absorbance at 450 nm minus blank) (Immunoglobulin M) is reported as 0.1 to 0.2 od. For the same substance, the reaction value (absorbance at 450 nm minus blank) [1] was over 0.5 od, the reaction value (absorbance at 450 nm minus blank) [3] was over 0.5 od and the reaction value (absorbance at 450 nm minus blank) (α2-Macroglobulin) was 0.2 to 0.5 od.
